Reference: patent US20250154231A1 (RQBIO COVID, published 2025)
Substitutions are numbered along the chain they refer to.

B1: Omi41 (antibody, V domains shown)
VH: QVQLVQSGAEVKKPGASVKVSCKAAGYSFMNYGINWVRQAPGQGLEWMGWINTYNGNAKYAQKFQGRVTMTTDTSTSTAYMELRSLRSGDTAVYYCARDPFTGYDDVWGGDYWGQGTLVTVSS
VL: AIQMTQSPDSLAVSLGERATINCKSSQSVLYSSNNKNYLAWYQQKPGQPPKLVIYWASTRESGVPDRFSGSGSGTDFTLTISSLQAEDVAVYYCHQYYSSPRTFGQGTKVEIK
B2: Omi42 (antibody, V domains shown)
VH: EVQLLETGGGLVQPGRSLRLSCAASGFPFDDYAIHWVRLAPGKGLEWVSSISWDSGSIGYADSVKGRFTISRDNAKNSLYLQMNSLRAEDTALYYCAKGAFPGYSSGWYYGLDVWGQGATVTVSS
VL: QSVVTQPPSASGSLGQSVTISCTGTSSDVGGYNYVSWYQQHPGKAPKLMIFEVSKRPSGVPDRFSGSKSGNTASLTVSGLQAEDEADYYCSSYAGNKGVFGGGTKLTVL
B3: Omi06 (antibody, V domains shown)
VH: EVQLLESGPGLVKPSETLSLTCTVSGGSISRYSWSWIRQPAGRGLEWIGRMYSSGGTNYNPSLESRVTMSLDTSKKQFSLKLSSVTAADTAVYYCAAASIDQVWGTYRDAFDIWGQGTMVTVSS
VL: AIRMTQSPSSLAASVGDRVTISCRAGQSISSFLHWYQQKVGKAPKLLIYDASSLQSGVPSRFSGSGSGTDFTLTISSLQPEDFAAYYCQQSYENPLTFGGGTKVDIK
B4: Omi08 (antibody, V domains shown)
VH: EVQLVESGAEVKRPGASVKVSCKASGYTFTNYFMHWVRQAPGQGLEWMGVINPSDGGASYPQKFQGRVTMTRDTSTSTVYMDLSSLRSEDTAVYSCARGAFDVSGSWYVPFDYWGQGTLVTVSS
VL: QSVVTQPPSVSGAPGQRVTISCTGSSSNIGAGYDVHWYQQLPGAAPKLLIYGNTNRPSGVPDRFSGSKSGTSASLAITGLQAEDEADYYCQSYDITLSGSGYVFGTGTKVTVL
B5: Omi09 (antibody, V domains shown)
VH: QVQLVESGGGVVQPGRSLRLSCAASGFTFRTYAVHWVRQAPGKGPEWVAVISYDGSNKYYADSVKGRFTLSRDTSKNTLYLQMNSLRAEDTAVYYCASRGDTVTTGDAFDIWGQGTMVTVSS
VL: SYELTQPPSVSVSPGQTARITCSGDALPKQYTYWYQQKPGQPPVLVIYKDSERPSGIPERFSGSSSGTTVTLTISGVQAEDEADYYCQSTDSSATYPGNVVFGGGTKLTVL
B6: Omi12 (antibody, V domains shown)
VH: EVQLVESGPEVKKPGTSVKVSCKASGFSFSMSAMQWVRRARGQRLEWIGWIVPGSGNANYAQKFQERVTITRDESTNTGYMELSSLRSEDTAVYYCAAPHCNKTNCYDAFDIWGQGTMVTVSS
VL: AIRMTQSPGTLSLSPGERATLSCRASQSVRSSYLAWYQQKPGQAPRLLIYGASTRATGIPDRFSGSGSGTDFILTINRLEPEDLAVYYCQQFGSSPWTFGQGTKVDIK
B7: Omi16 (antibody, V domains shown)
VH: EVQLVESGGGVVQPGGSLRLSCAASGIIVSANYMTWVRQAPGKGLEWVSVIYPGGSTFYADSVKGRFTISRDNSKNTLYLQMNSLRVEDSAVYYCARDLELAGFNDFWGQGTLVTVSS
VL: DVVMTQSPGTLALSPGERATLSCRTSQSVSSNYLAWYQQKPGQAPRLLIYGASSRATGIPDRFSGSGSGTDFTLTISRLEPEDFAVYYCQQFGSSPRYTFGQGTKVEIK
B8: Omi17 (antibody, V domains shown)
VH: QVQLVESGGGVVQPGGSLRLSCAASGVTVSSNYMSWVRQAPGKGLEWVSVLYAGGSTFYADSVKGRFTISRDNSKNTLYLQMNSLRAEDTAAYYCARDLAVAGFLDSWGQGTLVTVSS
VL: B7 VL with V2I, A12S, T25A, S28G, N32I, L48V, I49L, F92Y
B9: Omi18 (antibody, V domains shown)
VH: QVQLVESGGGLIQPGGSLRLSCAASGITVSSNYMTWVRQAPGKGLEWVSLLYAGGSAFYADSVKGRFTISRDNSKNTLYLLMNSLRVGDTAVYYCARDLQVYGMDVWGQGTTVTVSS
VL: SYELTQPPSVSVAPGQTARITCGGNNDGAKSVHWYQQKPGQAPVLVVYDDSDRPSGIPERFSGSNSGNTATLTITRIEAGDEADYYCQVWDSSRDHVFGTGTKVTVL

Target: SARS-CoV-1 S protein (SARS-CoV-1, UniProt P59594 14-1195)
Experiment: ELISA

Question: Does B1 bind?
Answer: Result: no binding

Question: Does B2 bind?
Answer: Result: no binding

Question: Does B3 bind?
Answer: Result: no binding

Question: Does B4 bind?
Answer: Result: no binding

Question: Does B5 bind?
Answer: Result: no binding

Question: Does B6 bind?
Answer: Result: no binding

Question: Does B7 bind?
Answer: Result: no binding

Question: Does B8 bind?
Answer: Result: no binding

Question: Does B9 bind?
Answer: Result: no binding
